Data taken from paper PMC9330763.

Biological target: SAd36 fiber-T4 fibritin-SpT (simian (chimpanzee) adenovirus species E serotype 36 (SAd36) | bacteriophage T4)
Test: SDS-PAGE without boiling

Substance: SAd36 fiber-T4 fibritin-SpT
- stoichiometry N: 3
